Results as given in article PMC12658125, “Oligomerisation of Ku from Mycobacterium tuberculosis promotes DNA synapsis” (Nature Communications, 2025).

Columns and labels:
Ku-Mtb [1] = molecular target: T1, Ku-Mtb (Mycobacterium tuberculosis, UniProt P9WKD9 1-273); assay: FIDA (hydrodynamic radius); details: protein: recombinant; tags: His (Ni-NTA purified, pET45b); chain copies: 2; label: 5' FAM on strand 1; 3' overhang 20 nt on strand 1
T1 sequence: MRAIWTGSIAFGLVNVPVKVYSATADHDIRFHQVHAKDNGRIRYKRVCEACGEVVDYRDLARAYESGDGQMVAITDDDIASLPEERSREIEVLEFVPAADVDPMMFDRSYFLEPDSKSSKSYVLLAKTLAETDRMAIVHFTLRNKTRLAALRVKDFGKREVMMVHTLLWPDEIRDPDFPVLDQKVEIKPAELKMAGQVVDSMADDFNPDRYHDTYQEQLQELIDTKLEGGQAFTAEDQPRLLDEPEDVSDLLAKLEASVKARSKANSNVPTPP

Ku-Mtb [2] = molecular target: T1, Ku-Mtb; assay: EMSA; details: protein: recombinant; tags: His (Ni-NTA purified, pET45b); chain copies: 2; label: 5' FAM on strand 1; 3' overhang 20 nt on strand 1
Ku-Mtb [3] = molecular target: T1, Ku-Mtb; assay: EMSA; 5 mM MgCl2; details: protein: recombinant; tags: His (Ni-NTA purified, pET45b); chain copies: 2; blunt

B1: FAM-DNA, 32 bp with 3' 20dT overhang (mixed)
DNA 1: GGAATGTAACCATCGTTGGTCGGCAGCAGGGCTTTTTTTTTTTTTTTTTTTT
DNA 2: GCCCTGCTGCCGACCAACGATGGTTACATTCC
- binding result (Ku-Mtb [1]): binds
- binding result (Ku-Mtb [2]): binds

B2: Blunt-DNA 50 bp (dsDNA)
DNA 1: CCTCTAGACCTGTACTACTCGAGAGATCGATCGACAGACGATGACTTAGC
DNA 2: GCTAAGTCATCGTCTGTCGATCGATCTCTCGAGTAGTACAGGTCTAGAGG
- binding result (Ku-Mtb [3]): binds
